B1: TA136 diabody (scFv, V domains shown, part only)
VH: DVQLQESGPGLVKPSQSLSLTCTVTGYSITSDYAWSWIRQLPGNKLEWMGYITYSGYSIYNPSLKSRISISRDTSKNQLFLQLNSVTTEDTATYYCVGGYDNMDYWGQGTSVTVSS
VL: QIVLTQSPAIMSASPGEKVTLTCSASSSVSSSHLYWYQQKPGSSPKLWIYSTSNLASGVPARFSGSGSGTSYSLTISNMETEDAASYFCHQWSSYPWTFGGGTKLEIK
modifications: (Gly4Ser)1 linker; C-terminal FLAG tag
B2: VB45B sc(Fv)2 (scFv, part only; not given: linkers and FLAG tag, part only)
scFv, part: QVQLQQSGPELVKPGASVKISCKASGYAFSSSWMNWVKQRPGKGLEWIGRIYPGDGETNNNGKFKGKATLTADKSSTTAYMQLSSLTSEDSAVYFCARGYGDYSFAYWGQGTLVTVSADIVMTQAAPSVPVTPGESVSISCRSSKSLLHSNGNTYLYWFLQRPGQSPQLLIYRMSNLASGVPDRFSGSGSGAAFTLRISRVEAEDVGVYYCMQHLEYPYTFGSGTKLEIKQVQLQQSGPELVKPGASVKISCKASGYAFSSSWMNWVKQRPGKGLEWIGRIYPGDGETNNNGKFKGKATLTADKSSTTAYMQLSSLTSEDSAVYFCARGYGDYSFAYWGQGTLVTVSADIVMTQAAPSVPVTPGESVSISCRSSKSLLHSNGNTYLYWFLQRPGQSPQLLIYRMSNLASGVPDRFSGSGSGAAFTLRISRVEAEDVGVYYCMQHLEYPYTFGSGTKLEIK
B3: VB140 sc(Fv)2 (scFv, part only; not given: linkers and FLAG tag, part only)
scFv, part: B2 scFv, part with K23R, S25F, S31N, T77S, K253R, S255F, S261N, T307S
B4: TA136 sc(Fv)2 (scFv, part only; not given: linkers and FLAG tag, part only)
scFv, part: DVQLQESGPGLVKPSQSLSLTCTVTGYSITSDYAWSWIRQLPGNKLEWMGYITYSGYSIYNPSLKSRISISRDTSKNQLFLQLNSVTTEDTATYYCVGGYDNMDYWGQGTSVTVSSQIVLTQSPAIMSASPGEKVTLTCSASSSVSSSHLYWYQQKPGSSPKLWIYSTSNLASGVPARFSGSGSGTSYSLTISNMETEDAASYFCHQWSSYPWTFGGGTKLEIKDVQLQESGPGLVKPSQSLSLTCTVTGYSITSDYAWSWIRQLPGNKLEWMGYITYSGYSIYNPSLKSRISISRDTSKNQLFLQLNSVTTEDTATYYCVGGYDNMDYWGQGTSVTVSSQIVLTQSPAIMSASPGEKVTLTCSASSSVSSSHLYWYQQKPGSSPKLWIYSTSNLASGVPARFSGSGSGTSYSLTISNMETEDAASYFCHQWSSYPWTFGGGTKLEIK
B5: VB16 sc(Fv)2 (scFv, part only; not given: linkers and FLAG tag, part only)
scFv, part: QVQLQQPGTELVRPGASVKLSCKASGYTFTDYWVNWVKQRPGRGLEWIGRIHPYDSETHYNQKFKNKATLTVDKSSSTAYIQLSSLTSEDSAVYYCASGGWFASWGQGTLVTVSADIVMTQAAPSVPVTPGESVSISCRSSKSLLYSNGNTYLYWFLQRPGQSPQLLIYRMSNLASGVPDRFSGSGSGTAFTLTISSVEAEDVGVYYCMQHLEYPYTFGSGTKLEIKQVQLQQPGTELVRPGASVKLSCKASGYTFTDYWVNWVKQRPGRGLEWIGRIHPYDSETHYNQKFKNKATLTVDKSSSTAYIQLSSLTSEDSAVYYCASGGWFASWGQGTLVTVSADIVMTQAAPSVPVTPGESVSISCRSSKSLLYSNGNTYLYWFLQRPGQSPQLLIYRMSNLASGVPDRFSGSGSGTAFTLTISSVEAEDVGVYYCMQHLEYPYTFGSGTKLEIK
B6: VB16 diabody (scFv, V domains shown, part only)
VH: QVQLQQPGTELVRPGASVKLSCKASGYTFTDYWVNWVKQRPGRGLEWIGRIHPYDSETHYNQKFKNKATLTVDKSSSTAYIQLSSLTSEDSAVYYCASGGWFASWGQGTLVTVSA
VL: DIVMTQAAPSVPVTPGESVSISCRSSKSLLYSNGNTYLYWFLQRPGQSPQLLIYRMSNLASGVPDRFSGSGSGTAFTLTISSVEAEDVGVYYCMQHLEYPYTFGSGTKLEIK
modifications: (Gly4Ser)1 linker; C-terminal FLAG tag
B7: VB45B diabody (scFv, V domains shown, part only)
VH: QVQLQQSGPELVKPGASVKISCKASGYAFSSSWMNWVKQRPGKGLEWIGRIYPGDGETNNNGKFKGKATLTADKSSTTAYMQLSSLTSEDSAVYFCARGYGDYSFAYWGQGTLVTVSA
VL: B6 VL with Y31H, T74A, T79R, S82R
modifications: (Gly4Ser)1 linker; C-terminal FLAG tag
B8: VB140 diabody (scFv, V domains shown, part only)
VH: B7 VH with K23R, S25F, S31N, T77S
VL: B6 VL with Y31H, T74A, T79R, S82R
modifications: (Gly4Ser)1 linker; C-terminal FLAG tag
B9: anti-human Mp1 antibody VB22B (antibody, mouse IgG2b, V domains shown)
VH: B7 VH with S30T, S31N, N59I, N60Y, K65R, G66V, T77S, Q82D, L83I, G101D
VL: B6 VL with V11I, Y31H, T79R, S82R, L97I, Y101F
notes: Mouse monoclonal antibody from a hybridoma, tested as culture supernatant; they were cloned with primers for the mouse IgG2b and kappa constant regions

The record followed here is patent US20080009038A1 (Chugai, published 2008).

Residue numbers refer to the chain shown, from its start.

For one test, the target named is full-length human Mp1 expressed on BaF3 cells (human) (UniProt P40238). The test is described as follows: cell-based or functional assay.
The molecule B1 came in with an agonistic activity (EC50 value: pM) in BaF3-human Mpl, cell proliferation (WST-8) of 3080 pM.
On the same count and under the same terms, under B2 stands 30 pM.
Take B3: the agonistic activity (EC50 value: pM) in BaF3-human Mpl, cell proliferation (WST-8) is 38 pM.
B4 came in with an agonistic activity (EC50 value: pM) in BaF3-human Mpl, cell proliferation (WST-8) of 54 pM.
For the molecule B5, the agonistic activity (EC50 value: pM) in BaF3-human Mpl, cell proliferation (WST-8) came out at 95 pM.
B6 registered an agonistic activity (EC50 value: pM) in BaF3-human Mpl, cell proliferation (WST-8) of 190 pM.
B7 returned an agonistic activity (EC50 value: pM) in BaF3-human Mpl, cell proliferation (WST-8) of 76 pM.
B8 registered an agonistic activity (EC50 value: pM) in BaF3-human Mpl, cell proliferation (WST-8) of 89 pM.

The target of the next test is T1, human Mp1 (human, UniProt P40238 26-491, limits assumed).
T1 construct: The analyses of section 1.6 used shMp1-FLAG and hMp1-Fc in ELISA, and CHO-human Mp1 and BaF3-human Mp1 cells; also called human Mpl; TPO receptor
T1 sequence (looked up): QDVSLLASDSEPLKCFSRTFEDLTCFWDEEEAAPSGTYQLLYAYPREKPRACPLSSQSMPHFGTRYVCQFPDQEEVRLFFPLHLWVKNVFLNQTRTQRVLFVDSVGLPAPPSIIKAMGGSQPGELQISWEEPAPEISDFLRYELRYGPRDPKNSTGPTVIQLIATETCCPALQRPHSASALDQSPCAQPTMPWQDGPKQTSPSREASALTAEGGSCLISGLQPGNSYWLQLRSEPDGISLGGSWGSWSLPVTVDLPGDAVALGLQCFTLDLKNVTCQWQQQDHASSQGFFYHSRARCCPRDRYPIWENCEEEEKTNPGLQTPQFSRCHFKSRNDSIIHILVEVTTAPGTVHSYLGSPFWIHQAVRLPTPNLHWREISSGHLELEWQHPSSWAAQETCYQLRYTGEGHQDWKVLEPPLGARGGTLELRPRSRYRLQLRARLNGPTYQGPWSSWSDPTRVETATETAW
The test is described as follows: hybridoma supernatants; ELISA on shMp1-FLAG and hMp1-Fc, flow cytometry on CHO-human Mp1 cells, BaF3-human Mp1 proliferation. The protocol:
MRL/MpJUmmCrj-lpr/lpr mice (hereinafter abbreviated as “MRL/lpr mice”; purchased from Charles River, Japan) were immunized; the primary immunization was carried out at eight weeks of age. For every single mouse, an emulsion containing 100 μg of shMPL-FLAG combined with Freud's complete adjuvant (H37 Ra; Beckton Dickinson), was administered subcutaneously as the primary injection. As a booster injection, an emulsion containing shMPL-FLAG (50 μg per mouse) combined with Freud's incomplete adjuvant (Beckton Dickinson) was administered subcutaneously. Three mice which have been immunized six times in total were subjected to a final injection of shMPL-FLAG (50 μg per mouse) through the caudal vein. Cell fusion was achieved by mixing the mouse myeloma P3-X63Ag8U1 cells (P3U1; purchased from ATCC) and mouse splenocytes using polyethylene glycol 1500 (Roche Diagnostics). Hybridoma selection in HAT medium began the following day and culture supernatants were obtained. Screening was carried out by ELISA using immunoplates with immobilized shMp1-FLAG or hMp1-Fc, and by a cell proliferation assay of BaF3-hMp1. Positive clones were isolated as single clones by limiting dilution and then cultured on a large scale. The culture supernatants were collected. Anti-human Mp1 antibody-producing hybridomas, VB22B, VB16, VB140, and VB45B, were obtained by this method.
Consider B9, for which the binding result is reported as “binds”.
